# Measurements reported in US20050059087A1 (Amgen, published 2005).
# Positions count from the first letter of the chain named. Names and notes keep the numbering of the source. No end group written: not given here.
# T1: EGFRvIII peptide-OVA (PEP3 14-mer conjugated to ovalbumin) (human, also: conjugated to OVA, chemistry not given here)
# T1 construct: also called VIII-pep-OVA; muEGFr
# T1 peptide: LEEKKGNYVVTDHC
# T2: Pep-3, NH2-LEEKKGNYVVTDHG-OH (human)
# T2 construct: Free peptide used in Biacore and KinExA (MW 1590 Da)
# T2 peptide: H-LEEKKGNYVVTDHG-OH
# B1: SC-EGFRvIII-XG1-139 (antibody, V domains shown)
# VH: EVQVLESGGGLVQPGGSLRLSCAASGFTFSSYAMSWVRQAPGKGLEWVSAISGSGGSTNYADSVKGRFTISRDNSKNTLYLQMNSLRAEDTAVYYCAGSSGWSEYWGQGTLVTVSS
# VL: DIQMTQSPSSLSASVGDRVTITCRASQGIRNNLAWYQQKPGKAPKRLIYAASNLQSGVPSRFTGSGSGTEFTLIVSSLQPEDFATYYCLQHHSYPLTSGGGTKVEIK
# notes: also called SC139; sc139
# B2: SC-EGFRvIII-XG1-131 (antibody, V domains shown)
# VH: QVQLVESGGGVVQSGRSLRLSCAASGFTFRNYGMHWVRQAPGKGLEWVAVIWYDGSDKYYADSVRGRFTISRDNSKNTLYLQMNSLRAEDTAVYYCARDGYDILTGNPRDFDYWGQGTLVTVSS
# VL: DTVMTQTPLSSHVTLGQPASISCRSSQSLVHSDGNTYLSWLQQRPGQPPRLLIYRISRRFSGVPDRFSGSGAGTDFTLEISRVEAEDVGVYYCMQSTHVPWTFGQGTKVEIK
# notes: also called SC131; sc131
# B3: mAb 131 variant, light chain V99F (antibody, V domains shown)
# VH: B2 VH
# VL: B2 VL with V99F
# notes: also called V99 changed to F
# B4: AB-EGFRvIII-XG1K-13.1.2 (antibody, V domains shown)
# VH: QVQLVESGGGVVQPGRSLRLSCAASGFTFSSYGMHWVRQAPGKGLEWVAVIWYDGSNKYYVDSVKGRFTISRDNSKNTLYLQMNSLRAEDTAVYYCARDGWQQLAPFDYWGQGTLVTVSS
# VL: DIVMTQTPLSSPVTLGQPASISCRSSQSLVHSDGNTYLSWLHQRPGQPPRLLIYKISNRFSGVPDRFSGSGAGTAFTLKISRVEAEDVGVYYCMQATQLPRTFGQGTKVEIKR
# B5: 13.1.2 variant L99T-5.3 (antibody, V domains shown)
# VH: B4 VH
# VL: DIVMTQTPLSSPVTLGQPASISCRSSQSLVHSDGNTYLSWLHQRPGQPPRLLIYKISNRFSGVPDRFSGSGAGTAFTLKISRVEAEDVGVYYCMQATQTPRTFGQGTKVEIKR
# notes: also called Leu99Thr; 99Thr
# B6: 13.1.2 variant L99N-4.1 (antibody, V domains shown)
# VH: B4 VH
# VL: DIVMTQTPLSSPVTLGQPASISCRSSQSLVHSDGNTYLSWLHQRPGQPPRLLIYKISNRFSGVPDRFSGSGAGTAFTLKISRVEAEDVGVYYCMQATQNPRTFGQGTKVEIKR
# notes: also called Leu99Asn; 99Asn
# Key:
# [1] = target: T1, EGFRvIII peptide-OVA (PEP3 14-mer …); test: XenoMax screening
# [2] = target: T3, EGFRvIII, full length, expressed by transfected cells (NR6 M, H1477, 300.19/EGFRvIII) (human, UniProt P00533 298-1210); test: cell-based or functional assay
# [3] = target: T4, wild type EGFR expressed by cells (NR6 Wt, A431, A549, H80, SF-539, A498, SKRC-52) (human, UniProt P00533 25-1210); test: FACS, 10 ug/ml antibody, H80, A431 and A549 cells
# T4 construct: Also used here for Western blots of cell lysates; also called wtEGFR; Wt receptor
# [4] = target: T2, Pep-3, NH2-LEEKKGNYVVTDHG-OH; test: Biacore 2000 SPR, mAb immobilised, pep-3 analyte, 23 C
# Protocol: Standard EDC/NHS and carbohydrate coupling was used to covalently immobilize mAbs to a CM5 sensor chip. To minimize mass transport and crowding mAbs were immobilized at levels that gave a maximum antigen binding response (Rₘₐₓ) of no more than 50-100 RU. A reference flow cell on each chip was activated and blocked with no mAb immobilization to serve as a control.
# All Biacore kinetic experiments were conducted at 23° C. […] Antigen samples were randomly injected over the biosensor surface in triplicate at 100 μL/min. Several buffer blanks were injected intermittently over the course of an experiment for double referencing. Each pep-3 concentration and blank were injected for 90 seconds. Dissociation was followed for 13 to 180 minutes.
# All Biacore sensorgrams were processed using Scrubber software (Version 1.1f, BioLogic Software, Australia). Sensorgrams were first zeroed on the y-axis and then x-aligned at the beginning of the injection. Bulk refractive index changes were removed by subtracting the reference flow cell responses. The average response of all blank injections was subtracted from all analyte and blank sensorgrams to remove systematic artifacts between the experimental and reference flow cells. CLAMP biosensor data analysis software (Version 3.40, BioLogic Software, Australia) was used to determine kₐ and kd from the processed data sets. Data from all flow cells were globally fit to a 1:1 bimolecular binding model that included a mass transport term. […] The KD was calculated from the quotient kd/kₐ.
# [5] = target: T5, EGFRvIII-rabbit Fc fusion protein (human; rabbit, UniProt P00533 298-645); test: ELISA, minilipofection supernatant titrated 1:2 on EGFRvIII-Rab Ig Fc fusion protein (1.5 ug/ml)
# T5 construct: made in 293F cells; also called EGFRvIII-RbFc; EGFRvIII-Rab Ig Fc fusion protein; not shown: rabbit IgG Hinge-CH2-CH3 (721 bp fragment)
# Protocol: The secretion ELISA tests were performed as follows. […] The plates were washed five times with dH₂O. Recombinant antibodies were titrated 1:2 for 7 wells from the undiluted minilipofection supernatant. The plates were washed five times with dH₂O. A goat anti-human IgG Fc-specific HRP-conjugated antibody was added at a final concentration of 1 μg/mL for 1 hour at RT for the secretion plates and binding plates detected with 1 μg/ml Rb anti Hu Fc for 1 hour at room temperature. The plates were washed five times with dH₂O. The plates were developed with the addition of TMB for 30 minutes and the ELISA was stopped by the addition of 1 M phosphoric acid. Each ELISA plate was analyzed to determine the optical density of each well at 450 nm.
# [6] = target: T3, EGFRvIII, full length, expressed by …; test: FACS on NR6 M cells, antibody at 0.25 µg/ml with SS Alexa anti-human IgG Fab, 37° C. for 1 hr, no glutathione (total cell-associated fluorescence)
# Protocol: XenoMax derived IgG1 recombinant antibodies were expressed, purified and quantitated as described previously. Antibodies were further assayed for their ability to internalize the EGFRvIII receptor in NR6 M cells. […] The cells were washed with cold 10% FCS in PBS and secondary antibody (SS Alexa antihuman IgG Fab) at 3 μg/ml Fab was added and incubated for 7 mins on ice. The cells were washed with cold 10% FCS in PBS once and then resuspended in cold media. Next, two sets of the triplicate were incubated at 37° C. and the remaining set was incubated at 4° C. for 1 hr. After that the cells incubated at 4° C. and one set of the cells incubated at 37° C. were treated with glutathione (as previously mentioned) for 1 hr on ice. Then the cells were washed and resuspended in 100 μl of cold 1% FCS in PBS and analyzed by FACS. The % internalization was calculated from the geometric mean obtained from the FACS analysis [(mean at 37° C. with glutathione—mean at 4° C. with glutathione)/(mean at 37° C. without glutathione—mean at 4 C with glutathione)].
# [7] = target: T2, Pep-3, NH2-LEEKKGNYVVTDHG-OH; test: KinExA, pep3
# Protocol: All KinExA experiments were conducted at room temperature (˜23° C.). For all equilibrium experiments, antigen was serially diluted into solutions having a constant mAb binding site concentration. For the first 10 titration points the dilutions were 2-fold and the 11th and 12th serial dilutions were 10-fold. The sample flow rate for all experiments was 0.25 mL/min and the labeling antibody flow rate was 0.5 mL/min. […] A sample volume of 250 μL was analyzed for the antibody-controlled experiment. Two or three replicates of each sample were measured for all equilibrium experiments. The equilibrium titration data were fit in a dual curve analysis to a 1:1 binding model using KinExA software (Version 2.4, Sapidyne Instruments).
# [8] = target: EGFrVIII antigen (ELISA antigen of Examples 15, 17 and 21; form not stated) (human, UniProt P00533 298-645, limits assumed); test: binding of variant antibody to EGFRvIII antigen
# [9] = target: T2, Pep-3, NH2-LEEKKGNYVVTDHG-OH; test: KinExA, pep3; KinExA (solution equilibrium), pep3; not Biacore
# [10] = target: T2, Pep-3, NH2-LEEKKGNYVVTDHG-OH; test: Biacore SPR, mAb immobilised, Pep-3 analyte (single experiment of Example 25)
# [11] = target: T2, Pep-3, NH2-LEEKKGNYVVTDHG-OH; test: Biacore 2000 SPR, mAb immobilised, pep-3 analyte; 95% confidence interval in parentheses
# Description: (§1) Two CM5 sensor chips were used in total to immobilize both mAbs. […] Biacore 2000 optical biosensors were used for all studies.
# (§2) Next, pep-3 was flowed across the mAb immobilized biosensor surfaces. […] Blank injections were run every sixth sample throughout the injection series for double referencing purposes.
# [12] = target: T2, Pep-3, NH2-LEEKKGNYVVTDHG-OH; test: as above
# Description: as §1, §2
# [13] = target: T4, wild type EGFR expressed by cells (NR6 …); test: FACS on H80 glioblastoma cells (wild type EGFR only), 30 min on ice, PE goat anti-human IgG; filled histogram = irrelevant IgG
# Protocol: The specificity of the purified antibodies was ascertained by performing FACS analysis on a panel of cell lines. H80, a human glioblastoma line, and H1477 (H80-EGFRvIII) that expresses high levels of EGFRvIII, A431, a human epidemoid carcinoma line, and A549, a human lung carcinoma cell line were used as the cell lines. All cell lines were from Dr. Bigner except A431 and A549, which were from ATCC (Rockville, Md., U.S.A.). Cells were incubated on ice with 10 μg/ml of the respective antibody for 30 min., washed in FACS buffer and subsequently incubated with PE-conjugated goat anti-human IgG from Jackson ImmunoResearch (West Grove, Pa., U.S.A.).
# [14] = target: T2, Pep-3, NH2-LEEKKGNYVVTDHG-OH; test: Biacore 2000 SPR, mAb immobilised, pep-3 analyte (range between runs)
# Description: as §1, §2
# [15] = target: T2, Pep-3, NH2-LEEKKGNYVVTDHG-OH; test: Biacore 2000 SPR, steady-state (equilibrium) binding model, pep-3 analyte
# Description: The first step in these examples involved the immobilization of 5,600 resonance units (RU) to 8,000 RU of each mAb tested to one flow cell (Fc) of a CM5 sensor chip using standard EDC/NHS coupling chemistry. […] Three CM5 sensor chips were used in total to immobilize all mutant mAbs with a unique mAb immobilized to each flow cell. […] Biacore 2000 optical biosensors were used for all studies.
Binder,binding result [1],% internalization [2] [%],"FACS Geometric mean, With glutathione 4° C. [2] [geometric mean]","FACS Geometric mean, With glutathione 37° C. [2] [geometric mean]","FACS Geometric mean (without glutathione, 37° C.) [6] [geometric mean]",Kd [12] [nM],koff [12] [s⁻¹],kon [12] [M⁻¹ s⁻¹],also measured
B1,binds,80.8,4.88,19.2,22.6,–,–,–,"staining relative to ABX-EGF (E7.6.3) [3]: 10%; Kd [4]: 290 nM; koff [4]: 0.00298 s⁻¹; kon [4]: 10300 M⁻¹ s⁻¹; Titer, antigen binding [5]: > 64 reciprocal dilution"
B2,binds,–,–,–,–,–,–,–,Kd [7]: 0.05 pM
B3,–,–,–,–,–,–,–,–,binding result [8]: no binding
B4,–,82.5,5.38,19.2,22.1,75,0.016,210000,Kd [9]: 0.025 nM; Kd [10]: 67 nM; Kd [11]: 75 nM; koff [11]: 0.016 s⁻¹; kon [11]: 210000 M⁻¹ s⁻¹; binding result [13]: no binding (tested: 10 µg/ml)
B5,–,–,–,–,–,60,0.013,216000,Kd [14]: 54 to 70 nM
B6,–,–,–,–,–,–,–,–,Kd [15]: 1400 nM
